Laboratory results from article PMC2172130.
pKd: −log10 of the molar value.

Molecular target: tomosyn (expressed in Sf9 cells) (UniProt Q9WU70)
Assay: far-Western, overlay or dot blot

Chain of UniProt Q9WU70 (Q9WU70 whole entry): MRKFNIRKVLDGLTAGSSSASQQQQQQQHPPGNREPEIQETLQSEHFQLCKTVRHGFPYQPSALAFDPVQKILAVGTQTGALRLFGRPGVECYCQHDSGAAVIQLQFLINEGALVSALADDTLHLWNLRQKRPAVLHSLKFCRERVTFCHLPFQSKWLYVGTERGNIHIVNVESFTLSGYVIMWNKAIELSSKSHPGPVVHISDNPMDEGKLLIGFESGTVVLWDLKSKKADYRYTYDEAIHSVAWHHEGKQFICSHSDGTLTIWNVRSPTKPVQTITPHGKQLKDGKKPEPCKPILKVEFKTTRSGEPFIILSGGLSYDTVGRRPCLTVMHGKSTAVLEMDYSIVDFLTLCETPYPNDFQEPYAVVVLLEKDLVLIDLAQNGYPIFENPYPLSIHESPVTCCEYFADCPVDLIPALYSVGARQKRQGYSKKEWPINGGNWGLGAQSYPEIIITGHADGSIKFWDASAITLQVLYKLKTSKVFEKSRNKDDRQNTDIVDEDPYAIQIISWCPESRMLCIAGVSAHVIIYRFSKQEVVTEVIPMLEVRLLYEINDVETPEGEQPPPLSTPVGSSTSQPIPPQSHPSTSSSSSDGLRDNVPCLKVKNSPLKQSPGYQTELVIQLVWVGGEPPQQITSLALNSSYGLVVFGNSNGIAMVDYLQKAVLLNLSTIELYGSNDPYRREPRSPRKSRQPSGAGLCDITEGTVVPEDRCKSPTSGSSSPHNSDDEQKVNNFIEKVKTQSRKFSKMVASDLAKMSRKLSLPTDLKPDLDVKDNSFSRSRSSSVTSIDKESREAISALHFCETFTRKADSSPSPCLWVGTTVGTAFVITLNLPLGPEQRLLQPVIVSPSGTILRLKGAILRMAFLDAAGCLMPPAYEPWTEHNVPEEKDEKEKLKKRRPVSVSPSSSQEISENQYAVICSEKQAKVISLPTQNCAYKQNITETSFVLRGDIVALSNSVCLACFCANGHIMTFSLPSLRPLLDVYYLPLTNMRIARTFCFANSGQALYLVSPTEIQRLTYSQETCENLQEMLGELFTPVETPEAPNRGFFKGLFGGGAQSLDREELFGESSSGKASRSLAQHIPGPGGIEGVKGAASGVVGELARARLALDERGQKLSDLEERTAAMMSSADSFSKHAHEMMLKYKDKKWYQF

“syntaxin-1, nonphosphorylated form (recombinant) (from UniProt P32851 1-288) (natural protein)” gave a pKd of 6.92.
